Substitutions are numbered along the chain they refer to. In names and notes the source's numbering stands. One block for each molecule: values may come before it.
T1: human LGR5 ectodomain (hLGR5ecto, R32-G557), immobilised for SPR (human, UniProt O75473 32-557)
T1 chain: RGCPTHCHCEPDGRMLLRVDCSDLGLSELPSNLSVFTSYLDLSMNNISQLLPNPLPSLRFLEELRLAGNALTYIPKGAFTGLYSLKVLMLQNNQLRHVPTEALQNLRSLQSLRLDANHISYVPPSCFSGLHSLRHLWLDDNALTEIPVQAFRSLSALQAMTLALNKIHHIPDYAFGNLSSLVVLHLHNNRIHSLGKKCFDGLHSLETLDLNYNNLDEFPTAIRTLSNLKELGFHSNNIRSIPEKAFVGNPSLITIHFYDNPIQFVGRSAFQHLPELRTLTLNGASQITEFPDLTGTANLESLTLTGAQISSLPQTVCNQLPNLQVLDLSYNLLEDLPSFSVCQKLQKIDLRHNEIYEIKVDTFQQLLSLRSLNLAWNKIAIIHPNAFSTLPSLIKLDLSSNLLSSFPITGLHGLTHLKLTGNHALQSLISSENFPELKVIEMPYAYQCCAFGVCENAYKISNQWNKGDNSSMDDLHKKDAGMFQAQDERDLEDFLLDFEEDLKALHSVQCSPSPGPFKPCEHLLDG

T2: human LGR5 ectodomain (hLGR5ecto, R32-G557), immobilised for SPR (human, UniProt O75473 32-557)
T2 construct: LGR5 ectodomain, human, residues R32-G557; the methods describe biotinylated variants on streptavidin
T2 sequence (looked up): T1 chain

T3: preformed hLGR5ecto,lr × mRspo2 Fu1–Fu2 complex, O75473
T3 chain 1: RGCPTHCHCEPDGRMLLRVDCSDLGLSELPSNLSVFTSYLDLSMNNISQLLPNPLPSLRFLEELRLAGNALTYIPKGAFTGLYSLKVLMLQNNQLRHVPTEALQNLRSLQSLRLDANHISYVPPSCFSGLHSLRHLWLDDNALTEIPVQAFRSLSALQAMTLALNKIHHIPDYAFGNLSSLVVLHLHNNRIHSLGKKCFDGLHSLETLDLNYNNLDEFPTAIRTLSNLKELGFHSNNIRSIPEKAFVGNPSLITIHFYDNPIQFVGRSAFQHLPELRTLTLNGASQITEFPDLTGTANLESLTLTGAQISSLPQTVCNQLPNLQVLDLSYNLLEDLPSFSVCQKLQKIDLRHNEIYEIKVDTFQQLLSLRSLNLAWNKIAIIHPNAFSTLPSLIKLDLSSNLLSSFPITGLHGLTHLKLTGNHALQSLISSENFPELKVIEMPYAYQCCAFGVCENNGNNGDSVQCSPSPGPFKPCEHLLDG
T3 chain 2: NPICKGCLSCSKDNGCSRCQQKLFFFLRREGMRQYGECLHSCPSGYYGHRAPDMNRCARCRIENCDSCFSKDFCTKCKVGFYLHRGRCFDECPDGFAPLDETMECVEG

T4: hRSPO3 (Homo sapiens (Human), UniProt Q9BXY4)
T4 chain: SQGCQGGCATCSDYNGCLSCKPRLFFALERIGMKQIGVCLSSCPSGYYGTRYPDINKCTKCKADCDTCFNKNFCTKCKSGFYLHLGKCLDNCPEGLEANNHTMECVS

T5: hRSPO1 (Homo sapiens (Human), UniProt Q2MKA7)
T5 chain: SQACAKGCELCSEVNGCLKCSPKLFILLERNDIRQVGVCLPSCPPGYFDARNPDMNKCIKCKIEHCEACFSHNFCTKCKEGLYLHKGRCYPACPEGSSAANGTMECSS

T6: mouse Rspo2 Fu1–Fu2 (mRspo2Fu1–Fu2, N37 or I39-G144), His10
T6 chain: T3 chain 2

T7: mZNRF3ecto M98T (Mus musculus)
T7 chain: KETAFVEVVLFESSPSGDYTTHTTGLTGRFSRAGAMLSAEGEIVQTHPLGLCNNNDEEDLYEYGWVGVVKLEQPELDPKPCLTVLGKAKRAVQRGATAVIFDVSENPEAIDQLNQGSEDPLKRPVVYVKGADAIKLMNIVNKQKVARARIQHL

B1: mouse Rspo4 Fu1–Fu2 (T29-Q136) (domain or fragment, UniProt Q8BJ73 29-136, looked up)
chain: TGLGGNCTGCVICSEENGCSTCQQRLFLFIRREGIRQYGKCVHDCPLGFFGIRGQEANRCKKCGATCESCFSQDFCIRCKRRFHLYKGKCLPSCPPGTLTHQSTRECQ
modifications: biotin at the C-terminal BirA recognition sequence (as immobilised ligand in Figure 4b)
notes: R-spondin 4, mouse, Fu1-Fu2, residues T29-Q136; also called mRspo4; mRspo4Fu1–Fu2
B2: mR42 (protein)
chain: TGLGGNCTGCVICSEENGCSTCQQRLFLFIRREGIRQYGKCVHDCPLGFFGIRGQEANRCKKCRIENCDSCFSKDFCTKCKVGFYLHRGRCFDECPDGFAPLDETMECVEG
modifications: Chimera read from its name as Rspo4 Fu1 + Rspo2 Fu2. Junction not printed: set by convention after the residue aligned with Rspo2 R95. Disulphides
B3: mouse ZNRF3 ectodomain (K53-L205), biotinylated, immobilised for SPR, Q5SSZ7 E92N; E94T (protein)
chain: T7 chain with E40N, E42T, T46M
B4: mouse ZNRF3 ectodomain (K53-L205), biotinylated, immobilised for SPR, Q5SSZ7 S90C (protein)
chain: T7 chain with S38C, T46M
B5: mouse ZNRF3 ectodomain (mZNRF3ecto, K53-L205) (domain or fragment, UniProt Q5SSZ7 53-205, looked up)
chain: T7 chain with T46M
notes: ZNRF3 ectodomain, mouse, residues K53-L205; pHLsec vector; used for crystals, ultracentrifugation and as SPR analyte; also called wt mZNRF3_(ecto); source: HEK293T, secreted, purified (HisTrap, gel filtration)
B6: mZNRF3ecto S90C (spontaneously disulphide cross-linked dimer) (domain or fragment, mouse, UniProt Q5SSZ7 53-205, looked up)
chain: T7 chain with S38C, T46M
notes: ZNRF3 ectodomain, mouse; limits K53-L205 as stated for mZNRF3ecto; probably as m1; also called S90C variant of mZNRF3_(ecto); predimerized mZNRF3_(ecto) S90C
B7: human RNF43 ectodomain (hRNF43ecto, Q44-L188), biotinylated, immobilised for SPR, Q68DV7 K108N (protein)
chain: QKAIIRVIPLKMDPTGKLNLTLEGVFAGVAEITPAEGKLMQSHPLYLCNASDDDNLEPGFISIVNLESPRRAPRPCLSLASKARMAGERGASAVLFDITEDRAAAEQLQQPLGLTWPVVLIWGNDAEKLMEFVYKNQKAHVRIEL
B8: human RNF43 ectodomain (hRNF43ecto, Q44-L188), biotinylated, immobilised for SPR, Q68DV7 L82S (protein)
chain: B7 chain with L39S, N65K
B9: mouse Rspo2 Fu1–Fu2 (mRspo2Fu1–Fu2, N37 or I39-G144), His10 (domain or fragment)
chain: T3 chain 2
B10: mouse Rspo2 Fu1–Fu2 (mRspo2Fu1–Fu2, N37 or I39-G144), His10 (domain or fragment)
chain: T3 chain 2
modifications: biotin at C-terminal BirA tag, immobilised; disulphide
B11: human Rspo3 Fu1–Fu2 (R32-H147), immobilised for SPR (domain or fragment, UniProt Q9BXY4 32-147, looked up)
chain: RMHPNVSQGCQGGCATCSDYNGCLSCKPRLFFALERIGMKQIGVCLSSCPSGYYGTRYPDINKCTKCKADCDTCFNKNFCTKCKSGFYLHLGKCLDNCPEGLEANNHTMECVSIVH
modifications: biotin at the C-terminal BirA recognition sequence
notes: R-spondin 3, human, Fu1-Fu2, residues R32-H147; also called hRspo3
B12: human Rspo1 Fu1–Fu2 (I32-S143), immobilised for SPR (domain or fragment, UniProt Q2MKA7 32-143, looked up)
chain: ISAEGSQACAKGCELCSEVNGCLKCSPKLFILLERNDIRQVGVCLPSCPPGYFDARNPDMNKCIKCKIEHCEACFSHNFCTKCKEGLYLHKGRCYPACPEGSSAANGTMECS
modifications: biotin at the C-terminal BirA recognition sequence
notes: R-spondin 1, human, Fu1-Fu2, residues I32-S143; also called hRspo1

Columns and labels:
[1] = biological target: Rspo Fu1–Fu2 chimera: Fu1 of Rspo4 with Fu2 of a 'strong' Rspo (mouse | not stated); experiment: SPR; binding of Rspo Fu1–Fu2 chimeras to ZNRF3ecto
[2] = biological target: T1, human LGR5 ectodomain (hLGR5ecto, …); experiment: SPR
[3] = biological target: T2, human LGR5 ectodomain (hLGR5ecto, …); experiment: SPR; binding of Rspo Fu1–Fu2 proteins and chimeras to hLGR5ecto; single dilution series; details: both partners purified
[4] = biological target: B5; experiment: SPR; mZNRF3ecto as analyte, biotinylated Rspo variants immobilised on streptavidin; equilibrium, 25 °C, 10 mM HEPES/NaOH pH 7.5, 150 mM NaCl, 0.005% Tween20; Biacore T200; details: both partners purified
[5] = biological target: T3, preformed hLGR5ecto,lr × mRspo2 Fu1–Fu2 …; experiment: SPR; details: chain shown with the change
[6] = biological target: T4, hRSPO3; experiment: SPR equilibrium, RSPO Fu1-Fu2 immobilised
[7] = biological target: T5, hRSPO1; experiment: SPR equilibrium, RSPO Fu1-Fu2 immobilised
[8] = biological target: T2, human LGR5 ectodomain (hLGR5ecto, …); experiment: SPR; hLGR5ecto (R32-G557) immobilised; injections of 10 μM solutions step by step, and saturation with the preformed mZNRF3ecto × mRSPO2 complex (single dilution series); details: both partners purified
[9] = biological target: the molecule itself; experiment: crystal structure; X-ray, sitting drop vapour diffusion; apo proteins and complexes in several crystal forms
[10] = biological target: T6, mouse Rspo2 Fu1–Fu2 (mRspo2Fu1–Fu2, N37 …); experiment: SPR; details: chain shown with the change
[11] = biological target: T7, mZNRF3ecto M98T; experiment: SPR

Kd [1]: 3600 nM
Molecule: mouse ZNRF3 ectodomain (mZNRF3ecto, K53-L205) (from UniProt Q5SSZ7 53-205) (domain or fragment)

Molecule: B1
Kd [2]: 73 nM
binding result [3]: binds
Kd [4]: 300000 nM

Molecule: B2
Kd [2]: 240 nM

Molecule: B3
Kd [5]: 3500 nM

Molecule: B4
Kd [5]: 206 nM

Molecule: B5
Kd [6]: 60 nM
Kd [7]: 6800 nM
binding result [8]: binds

Molecule: B6
binding result [9]: binds

Molecule: B7
Kd [10]: 62 nM

Molecule: B8
Kd [10]: 78 nM

Molecule: B9
Kd [2]: 14 nM

Molecule: B10
Kd [11]: 1500 nM

Molecule: B11
binding result [4]: binds

Molecule: B12
binding result [4]: binds

From publication PMC3905715 (Nature Communications, 2013)
